Test: yeast display, Sf9 membrane polyspecificity reagent, FACS + sequencing; frameworks hold sequencing errors
Procedure, shortened: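 Using colony PCR, genes from sorted yeast display clones were amplified, then sequenced on MiSeq at 2 × 250 and filtered by CDR length. The clones had been stained with 10% biotinylated, detergent-solubilized Sf9 membrane reagent for 1 hour at 4 °C and sorted by FACS into low and high (top ~1%) gates on anti-HA and streptavidin fluorescence. Polyreactivity labels come from the gate of origin.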

Row | Sequence | polyreactivity (PSR sort gate)
1 | QVQLVESGGGLVQAGGSLRLSCAASGSIFRRNAMGWYRQAPGKERELVAAISSNGGSTYYADSVKGRFTISRDNAKNTVYLQMNSLKQEDTAVYYFNALGRVRYSPRYGYDYWGLGTQVTVSS | high polyreactivity
2 | QVQLVESGGGLVQAGGSLRLSCAASGSIFRRNAMGWYRQAPGKERELVAAISSSGNTYYADSVKGRFTISRDNAKNTVYLQMNSLKPEDTAVYYCAADGRNYYGSYDYWGQGTQVTVSS | low polyreactivity
3 | QVQLVESGGGLVQAGGSLRLSCAASGSIFRRNAMGWYRQVPGKERELVAAITWRGDRTYYADSVKGRFTISRDNAKNTVYLQMNSLKPEDTAVYYCNKLGRIQYDYWGQGTQVTVSS | high polyreactivity
4 | QVQLVESGGGLVQAGGSLRLSCAASGSIFRRNTMGWYRQAPGKERELVAAITFTGGRTYYADSVKGRFTISRDNAKNTVYLQMNSLKPEDTAVYYCNRVTAYYPTKFDYWGQGTQVTVSS | high polyreactivity
5 | QVQLVESGGGLVQAGGSLRLSCAASGSIFRRYAMGWYRQAPGKERELVAAIDSSGGTSYADSVKGRFTISRDNAKNTVYLQMNILKPEDTAVYYCATSFSWKGRKYGYWGQGTQVTVSS | high polyreactivity
6 | QVQLVESGGGLVQAGGSLRLSCAASGSIFRSYAMGWYRHAPGKERELVASISRRGGSTYYADSVKGRFTSSRDNSKNTVYLHMNSRKPEDTAVYYCAAVRYNSRVSTTTSEMYYWGQGTQVTVSS | low polyreactivity
7 | QVQLVESGGGLVQAGGSLRLSCAASGSIFRSYAMGWYRQAPGKERELVAAISRRGSSTYYADSVKGRFTISRDNAKNTVYLQMNSLKPEDTAVYYCAADRVVPRGRYGGDYWGQGTQVTVSS | high polyreactivity
8 | QVQLVESGGGLVQAGGSLRLSCAASGSIFRSYAMGWYRQAPGKERELVAAITNGGSTYYADSVKGRFTISRDNAKNTVYLQINSLKPEDTAVYYCAAARYTYWFYLVKKTGYYWGQGTQVTVSS | high polyreactivity
9 | QVQLVESGGGLVQAGGSLRLSCAASGSIFRSYAMGWYRQAPGKERELVAGISYSGGSTYYADSVKGRFTISRDKAKNTVYLQMNSLKPEDTAVYYCNVDGGTYFFFVGAWGEYDYWGQGTQVTVSS | low polyreactivity
10 | QVQLVESGGGLVQAGGSLRLSCAASGSIFRSYGMGWYRQAPGKDRELVPSISRRGGSTYYADSVKGRFTISRDNAKNTVYLQTNSLKPEDTAVYYCAAVRYNSRVSTTPSEMYYWGQGTQVTVSS | low polyreactivity
11 | QVQLVESGGGLVQAGGSLRLSCAASGSIFRTNAIGWYRQAPGRERELVAAITGSGGSTYYADSVKGRFTISRDNAKNTVYLQMNSLKPEDTAVYYCAVVGYHRDFDYWGQGTQVTVSS | low polyreactivity
12 | QVQLVESGGGLVQAGGSLRLSCAASGSIFRTNAMGWYRQAPGKERELVAAISSGDRTYYADSVKGRFTISRDNAKNTVYLQMNSLKPEDTAVYYCAARGYSATVYAGTYDYWGQGTQVTVSS | low polyreactivity
13 | QVQLVESGGGLVQAGGSLRLSCAASGSIFRTNAMGWYRQAPGKERELVAAITGRGGSTYYADSVKGRFTISRNNAKNTVYLQMNSLKPEDTAVYYCAADTWYGYRYKYDYWGQGTQVTVSS | high polyreactivity
14 | QVQLVESGGGLVQAGGSLRLSCAASGSIFRTYAMGWYRQAPGKERELVAAIRRSGGRTYYADSVKGRFTISRDNAKNTVYLQMNSLKPEDTAVYYCNKRVSKQSKYDYWGQGTQVTVSS | high polyreactivity
15 | QVQLVESGGGLVQAGGSLRLSCAASGSIFRTYTMGWYRQAPGKEREFVAAISRSGGSTYYADSVKGRFTISRDNAKNTVYLQMNSLKPEDTAVYYCNARWGLGSYGYWGQGTQVTVSS | high polyreactivity
16 | QVQLVESGGGLVQAGGSLRLSCAASGSIFRVNDMGWYRQAPGKERELVAAISSNGDDTFYADSVKGRFTISRDNAKNTVYLQMNSLKPEDTAVYYCNAESPTYPDYYFKYTHYDYWGQGTQVTVSS | low polyreactivity
17 | QVQLVESGGGLVQAGGSLRLSCAASGSIFRVNDMGWYRQAPGKERELVAAISSNGDDTFYADSVKGRFTISRDNSKNTVYLQMNSLKPEDTAVYYCNAESPTYPDYFFKYTHYDYWGQGTQVTVSS | low polyreactivity
18 | QVQLVESGGGLVQAGGSLRLSCAASGSIFRVYAMGWYRHAPGKERELVATITWNGGSTYYADSVKGRFTISRDNAKNTVYLQMNSLKPEDTAVYYCAAGRDTWPSTYYYWGQGSQVTVSS | low polyreactivity
19 | QVQLVESGGGLVQAGGSLRLSCAASGSIFRVYAMGWYRPAPGKERELVASISRRGGSTYYADSVKGRFTISRDNEKNTVYLHMNILKPEDTAVYYCAAEFVIGVHCYDYWGQVTQVTVSS | high polyreactivity
20 | QVQLVESGGGLVQAGGSLRLSCAASGSIFRVYAMGWYRQAPGKERELVAAITRGGSTYADSVKGRFTISRDNAKNTVYLQMNSLKPEDTAVYYCAARVSYWGQGTQVTVSS | high polyreactivity
21 | QVQLVESGGGLVQAGGSLRLSCAASGSIFRVYAMGWYRQAPGKERELVAGITGRGGSTYYADSVKGRFTISRDNAKNTVYLQMNSLKPEDTAVYYCNRRYRYGRDYWGQGTQVTVSS | high polyreactivity
22 | QVQLVESGGGLVQAGGSLRLSCAASGSIFRVYAMGWYRQAPGKERELVAGITWTGTRTYYADSVKGRFTISRDNAKNTVYLQMNSLKPEDTAVYYCAARYTIRYKRYDYWGQGTQVTVSS | high polyreactivity

Row | Sequence | polyreactivity (PSR sort gate)
23 | QVQLVESGGGLVQAGGSLRLSCAASGSIFRVYAMGWYRQAPGKERELVARISRGGRTNYADSVKGRFTISRDNAKNTVYLQMNSLKPEDTSVYYCAADVVSLESYSYQSLGYDSWGQGTQVNVSS | high polyreactivity
24 | QVQLVESGGGLVQAGGSLRLSCAASGSIFRVYAMGWYRQAPGKERELVARISWSDDGTYYADSVKGRFTISRDNAKNTVYLQMNSLKPEDTAVYYCNADSYYYPYDYWGQGTQVTVSS | low polyreactivity
25 | QVQLVESGGGLVQAGGSLRLSCAASGSIFRVYAMGWYRQAPGKERELVASISRRGGSTYYADSVKGRFTISRDYAKNTVYLQMNSLKPEDTAVYYCAAEFVIGGHGYDYWGQGTQVSVSS | high polyreactivity
26 | QVQLVESGGGLVQAGGSLRLSCAASGSIFRVYAMGWYRQSPGKERELVASIRSRGGSTYYADSVKGRFTISRDNAKNTVYLQMNSLKPEDTAVYYCGKSYWGGDEYWGQGTQVTVSS | low polyreactivity
27 | QVQLVESGGGLVQAGGSLRLSCAASGSIFRVYGMGWYRQAPGKERELVAAITWSGGSTYYADSVKGRFTISRDNAKNTVYLQMNSLKPEDTAVYYCAARHKYAFWTAFGNYWGQGTQVTVSS | high polyreactivity
28 | QVQLVESGGGLVQAGGSLRLSCAASGSIFRVYGMGWYRQAPGKERELVAAITWSGGSTYYADSVKGRFTISRDNAKNTVYLQMNSLKPEDTAVYYCNADKFRRYGYWGQGTQVTVSS | high polyreactivity
29 | QVQLVESGGGLVQAGGSLRLSCAASGSIFRWNAMGWYRQAPRKEREMVAAIDYSGGSTYYADSVKGRFTISRDNAKKTVYLQMNSLKPEDTAVYFCADTAYYGGYLRYDYWGQGTQVTVSS | low polyreactivity
30 | QVQLVESGGGLVQAGGSLRLSCAASGSIFRWYAMGWYRQAPGKERELVAAISTSGGNTYYADSVKGRFTISRDIAKITVYLQMKSLKPEDTAVYYCNALWYRSLSYRYDYWGQGTQVTVSS | high polyreactivity
31 | QVQLVESGGGLVQAGGSLRLSCAASGSIFRWYAMGWYRQAPGKERELVAGITRGGRTNYADSVKGRFTISRDNAKNTVYLQMNSLKPEDTAVYYCAKVSRSKQKFDYWGQGTQVTVSS | high polyreactivity
32 | QVQLVESGGGLVQAGGSLRLSCAASGSIFRYNAKGWYRQAPGKERELVAARRSRGGSTNYADSVKGRFTISRDNAKNTVYLQMNSLKPEDNAVYFCAADGSYTKTTIYIFGGLDFWGQGTQVTVSS | low polyreactivity
33 | QVQLVESGGGLVQAGGSLRLSCAASGSIFRYNAMGWDRQAPGKERELVAGITWGGSTYYADSVKGRFTISRDNAKNTVYLQMNSLKPEDTAVYYCAAGRYGDYGYWGQGTQVTVSS | high polyreactivity
34 | QVQLVESGGGLVQAGGSLRLSCAASGSIFRYNAMGWYRQAPGKERELVAAIRSGGSTYYADSVKGRFTISRDNAKNTVYLQMNSLKPEDTAVYYCNARRYVGYDYWGQGTQVTVSS | high polyreactivity
35 | QVQLVESGGGLVQAGGSLRLSCAASGSIFRYYAMGWYRQAPGKEREFVAAISASGGSTYYADSVKGRFTISRDNAKNTVYLQMNSLKPEDTAVYYCAARYSYRRPGGYPFGSWGQGTQVTVSS | high polyreactivity
36 | QVQLVESGGGLVQAGGSLRLSCAASGSIFRYYAMGWYRQAPGKEREFVAAITRSGGSTTYADSVKGRFTISRDNAKNTVYLQMNSLKPEDTAVYYCNAKSSRFQVFNYGYWGQGTQVTVSS | high polyreactivity
37 | QVQLVESGGGLVQAGGSLRLSCAASGSIFRYYAMGWYRQAPGKEREFVARISVSGGSTYYADSVKGRFTISRDNAKNAVYLQMNSLKPEDTAVYYCNTADFRSRYPAMGYWGQGTQVNVSS | low polyreactivity
38 | QVQLVESGGGLVQAGGSLRLSCAASGSIFRYYAMGWYRQAPGKERELVAAIRRSGASTYYADSVKGRFTISRDNAKNTVYLHMNSLKPEDTAVYYCAASSFNNGHRYDYWGQGTQVTVSS | high polyreactivity
39 | QVQLVESGGGLVQAGGSLRLSCAASGSIFRYYAMGWYRQAPGKERELVAAISGSGASTYYADSVKGRFTISRDNAKNTVYLQMNSLKPEDTEVYFCAAYRGPRHHYPSVYNWGYDYWGQGTQVTVSS | high polyreactivity
40 | QVQLVESGGGLVQAGGSLRLSCAASGSIFRYYAMGWYRQAPGKERELVAAISNRGSSTNYADSVKGRFTISRDNAKNTVYLQMNSLKPEDTAVYYCAARVRYPGLSGNMYYWGQGTQVTVSS | high polyreactivity
41 | QVQLVESGGGLVQAGGSLRLSCAASGSIFRYYAMGWYRQAPGKERELVAAITSGGRTNYADSVKGRFTISRDNAKNTVYLQMNSLKPEDSAVYYCNKGYNAVWRYRGDYWGQGTQVTVSS | high polyreactivity
42 | QVQLVESGGGLVQAGGSLRLSCAASGSIFRYYAMGWYRQAPGKERELVATISSSGGTTYYADSVKGRFTISRDNAKNTVYLQMNSLKPEDTAVYYCAALWTWHVSYPVHEYDYWGQGTQVTVSS | low polyreactivity
43 | QVQLVESGGGLVQAGGSLRLSCAASGSIFRYYAMGWYRQAPGKERELVATISSSGGTTYYADSVKGRFTISRDNAKNTVYLQMNSLKPEETAVYYCAALWTWHVSYPVHEYDFWGQGTQVTVSS | low polyreactivity
